{"source": "patent US20230106247A1", "about": "(L AND L BIO CO LTD NINGBO CHINA, published 2023)", "binders": {"B1": {"name": "humanized antibody mab14-h16 (antibody, human IgG4 S228P, kappa, V domains shown)", "VH": "QVQLVQSGAEVKKPGASVKVSCKASGYNFNIYWINWVRQAPGQGLEWIGNIYPSSISTNYNEKFKTRATLTVDKSTSTVYMELSSLRSEDTAVYYCARSEGTYYGGRYEGDWFGYWGQGTLVTVSS", "VL": "DIQMTQSPSSLSASVGDRVTITCRASQDIRNYLNWYQQKPGKAPKLLIYFTSTLHSGVPSRFSGSGSGTDFTLTISSLQPEDFATYYCQQGNTLPWTFGGGTKVEIKR", "notes": "hIgG4, κ"}}, "key": {"Cyno Sirpα L938": {"target": "T1, Cyno Sirpα L938 (cynomolgus, limits assumed)", "T1 construct": "also called RB6-1; Cyno Sirpα polymorphism 5 (L938)", "T1 chain": "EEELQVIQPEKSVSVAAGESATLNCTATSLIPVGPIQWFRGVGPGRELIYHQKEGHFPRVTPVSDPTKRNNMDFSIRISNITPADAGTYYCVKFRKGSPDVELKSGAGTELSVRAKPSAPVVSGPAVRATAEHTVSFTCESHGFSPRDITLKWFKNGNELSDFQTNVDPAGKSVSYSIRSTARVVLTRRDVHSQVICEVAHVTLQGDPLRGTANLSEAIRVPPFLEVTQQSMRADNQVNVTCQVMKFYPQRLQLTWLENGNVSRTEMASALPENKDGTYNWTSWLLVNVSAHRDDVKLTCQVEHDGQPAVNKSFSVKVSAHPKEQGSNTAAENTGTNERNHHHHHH", "assay": "ELISA", "procedure": "(§1) Different antigens (recombinant proteins) such as the human Sirpα-V1-hFc, Sirpα-V1-his, Sirpα-V2-his, Sirpβ-his, Sirpγ-his, monkey Sirpα-his (cynoSirpα-his) or NOD-mSirpα-his described in Example 1 were diluted with a PBS buffer at pH7.4 to concentrations of 1 μg/mL, 2 μg/mL or 5 μg/mL, added into a 96-well ELISA plate (Corning, CLS3590-100EA) at a volume of 50 μL/well, and placed in an incubator at 37° C. for 2 hours. After the liquid was discarded, the wells were added with a blocking solution of 5% skimmed milk (skimmed milk powder available from Bright Dairy) diluted with PBS at 230 μL/well, and incubated in an incubator at 37° C. for 3 hours, or placed overnight at 4° C. (for 16-18 hours) for blocking. The blocking solution was discarded, and the plate was washed with a PBST buffer (pH7.4 PBS containing 0.05% Tween-20) for 5 times, then added with 50 μL/well of the supernatant (containing a detection antibody) or 10 μg/mL of the starting 5-fold gradient dilution of the antibody to be tested, and incubated at 37° C. for 1 hour. […] The plated was washed with PBST for 5 times, then added with 50 μL/well of TMB chromogenic substrate (KPL, Cat #: 52-00-03), incubated at room temperature for 10-15 min, added with 50 μL/well of 1 M H₂SO₄ to stop the reaction, and read by a […] Go microplate reader (ThermoFisher, Cat #: 51119200) for the absorbance value at 450 nm, and then a clone with high binding activity was selected or a EC₅₀ value was calculated according to the OD value."}, "Cyno Sirpα L937": {"target": "T2, Cyno Sirpα L937 (cynomolgus)", "T2 construct": "also called RB3-5; Cyno Sirpα polymorphism 4 (L937)", "T2 chain": "T1 chain with E19D, A27V, T28S, V42A, H51N, Q52L, F163V, V185L, M245T", "assay": "ELISA", "procedure": "as §1"}, "Cyno Sirpα L932": {"target": "T3, Cyno Sirpα L932 (cynomolgus)", "T3 chain": "T1 chain with E19D, A27V, T28S, V42A, H51N, Q52L, P62A, F163V, V185L, M245T", "assay": "ELISA", "procedure": "as §1"}, "Cyno Sirpα L933": {"target": "T4, Cyno Sirpα L933 (cynomolgus)", "T4 construct": "extracellular domain; also called Cyno Sirpα polymorphism 2 (L933)", "assay": "ELISA", "procedure": "as §1"}, "human Sirpα-V2-his": {"target": "human Sirpα-V2-his (human)", "sequence (chain, as listed by the source)": "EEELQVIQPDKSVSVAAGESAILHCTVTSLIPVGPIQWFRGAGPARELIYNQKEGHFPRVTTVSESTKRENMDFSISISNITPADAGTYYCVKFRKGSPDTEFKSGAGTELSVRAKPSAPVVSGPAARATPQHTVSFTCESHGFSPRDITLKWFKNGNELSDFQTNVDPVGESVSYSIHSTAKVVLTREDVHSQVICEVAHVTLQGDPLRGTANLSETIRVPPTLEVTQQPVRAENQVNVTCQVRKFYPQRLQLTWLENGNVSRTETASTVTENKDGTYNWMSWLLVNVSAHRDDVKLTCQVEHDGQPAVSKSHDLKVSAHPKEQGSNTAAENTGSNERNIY", "assay": "ELISA", "procedure": "as §1"}, "Cyno Sirpα L936": {"target": "T5, Cyno Sirpα L936 (cynomolgus)", "T5 construct": "also called RB3-3; Cyno Sirpα polymorphism 3 (L936)", "T5 chain": "T1 chain with E19D, A27V, V42A, P62S, D65E, P66S, R77H, L103V, M245T", "assay": "ELISA", "procedure": "as §1"}, "Cyno Sirpα L939": {"target": "T6, Cyno Sirpα L939 (cynomolgus, limits assumed)", "T6 construct": "also called RB6-2; Cyno Sirpα polymorphism 6 (L939)", "T6 chain": "T1 chain with H51S, M245T", "assay": "ELISA", "procedure": "as §1"}, "human Sirpα-V1-his": {"target": "T7, human Sirpα-V1-his (human, UniProt P78324 31-373)", "T7 construct": "range 31-373; Bought (Sino Biological 11612-H08H) or expressed in-house; also called hSirpα-V1; hSirpα-V1-his", "assay": "ELISA", "procedure": "as §1"}, "[1]": {"target": "T8, human T cells (expressing Sirpγ) (human, UniProt Q9P1W8 29-387)", "T8 construct": "whole, on cells; The target as printed is the cell; also called human PBMCs (T cells)", "T8 sequence (Q9P1W8 29-387)": "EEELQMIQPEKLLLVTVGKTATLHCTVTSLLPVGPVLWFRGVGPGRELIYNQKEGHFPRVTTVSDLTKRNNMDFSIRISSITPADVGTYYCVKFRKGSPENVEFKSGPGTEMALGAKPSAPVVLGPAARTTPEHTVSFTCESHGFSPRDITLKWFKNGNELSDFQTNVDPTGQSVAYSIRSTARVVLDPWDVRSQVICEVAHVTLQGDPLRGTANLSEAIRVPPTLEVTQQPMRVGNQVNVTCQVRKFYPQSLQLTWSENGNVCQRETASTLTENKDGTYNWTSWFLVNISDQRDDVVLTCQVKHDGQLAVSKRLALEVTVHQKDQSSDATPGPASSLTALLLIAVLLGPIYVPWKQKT", "assay": "flow cytometry on PBMC", "description": "The cryopreserved PBMC cells were taken, thawed at 37° C., then added into 3 mL of a FACS buffer (1×PBS+2% FBS), and centrifuged at 1,000 rpm for 5 min, the supernatant was discarded, the cells were resuspended in the FACS buffer for counting, and the density was adjusted to 1×10⁶ cells/mL. PBMCs were added into a U-shaped 96-well plate at 100 μL cells/well, and added with the antibody to be detected so that the final concentrations thereof are 10 μg/mL, 1 μg/mL and 0 μg/mL respectively. They were mixed uniformly, then incubated at room temperature for 20 min, and centrifuged at 2,000 rpm for 5 min. The supernatant was discarded, and the cell pellet was resuspended by adding 100 μL of the FACS buffer, and centrifuged at 2,000 rpm for 5 min. […] The mixture was centrifuged at 2,000 rpm for 5 min. The supernatant was discarded, and the cell pellet was washed once with 100 μL of the FACS buffer, resuspended with 100 μL of the FACS buffer, and read by a flow cytometer (Novosampler™ pro, model: NS200). The assay data was processed with NovoExpress. Taking the sample well with the antibody concentration of 0 μg/mL as the negative control, based on this, the proportion of T cells specifically bound with the antibody to be tested was calculated."}}, "note": "Substitutions are numbered along the chain they refer to.", "data": [{"binder": "B1", "values": [{"measurement": "binding result", "setting": "Cyno Sirpα L938", "value": "no binding (tested: the binding signal was not detected)"}, {"measurement": "EC50", "setting": "Cyno Sirpα L937", "value": 0.121, "unit": "nM"}, {"measurement": "EC50", "setting": "Cyno Sirpα L932", "value": 0.181, "unit": "nM"}, {"measurement": "EC50", "setting": "Cyno Sirpα L933", "value": 0.159, "unit": "nM"}, {"measurement": "EC50", "setting": "human Sirpα-V2-his", "value": 0.094, "unit": "nM"}, {"measurement": "EC50", "setting": "Cyno Sirpα L936", "value": 0.143, "unit": "nM"}, {"measurement": "binding result", "setting": "Cyno Sirpα L939", "value": "no binding (tested: the binding signal was not detected)"}, {"measurement": "EC50", "setting": "human Sirpα-V1-his", "value": 0.065, "unit": "nM"}, {"measurement": "binding result", "setting": "[1]", "value": "no binding (tested: negative control 1.67%)"}]}]}
